The experiment deals with SARS-CoV-2 spike protein receptor binding domain (SARS-CoV-2, UniProt P0DTC2). In words: cryo-EM structure.

The record followed here is publication doi:10.1101/2021.03.10.434834 (bioRxiv, 2021).

B1: REGN10989 Fab (Fab, V domains shown)
VH: QVQLVQSGAEVKKPGASVKVSCKASGYIFTGYYMHWVRQAPGQGLEWMGWINPNSGGANYAQKFQGRVTLTRDTSITTVYMELSRLRFDDTAVYYCARGSRYDWNQNNWFDPWGQGTLVTVSS
VL: QSALTQPASVSGSPGQSITISCTGTSSDVGTYNYVSWYQQHPGKAPKLMIFDVSNRPSGVSDRFSGSKSGNTASLTISGLQAEDEADYYCSSFTTSSTVVFGGGTKLTVL
With B1, the binding result is on record as “binds”.

B2: REGN10985 Fab (Fab, V domains shown)
VH: EVQLVESGGGLVQPGRSLRLSCAASGFTFDDYAMHWVRQAPGKGLEWVSGISWNRGSIGYADSVKGRFTISRDNAKNSLYLQMSSLRAEDTALYYCAKDGERWDSVVVPSARNGMDVWGQGTTVTVSS
VL: QSVLTQPPSVSGAPGQRVTISCTGSSSNIGAGYDVHWYQQLPGTAPKLLIYGNSNRPSGVPDRFSGSKSGTSASLAITGLQAEDEADYYCQSYDSSLSGSYVFGTGTKVTVL
As for B2, the binding result is given as “binds”.
